Test results from patent US7923535B2, “Tryptophan as a functional replacement for ADP-ribose-arginine in recombinant proteins” (The United States of America as represented by the …, priority 2002, dated 2011).

Experiments:
A549 cells [1] = test: IL-8 production by A549 cells (indirect ELISA); assay type: cell-based; conditions: concentrations of 0.75 and 1.5 μM; 12 or 24 hours; compared with the unmodified peptide
Procedure: […] Culture medium is sampled after 12 or 24 hours of incubation and IL-8 content is assayed by indirect ELISA according to the manufacturer's instructions (R & D System Inc. Minneapolis, Minn.).

HNP-1 = molecular target: T1, HNP-1 (Homo sapiens, UniProt P59665); test: Blocking of HNP-1 cytotoxic activity (radial diffusion and chromium release assays after pre-incubation with HNP-1); assay type: cell-based; conditions: pre-incubated 1 hour at 37° C. with HNP-1 (100 nM, E. coli; 12 μM, chromium release)
T1 sequence (P59665 65-94 limits assumed): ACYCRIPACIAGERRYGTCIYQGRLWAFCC
Procedure: HNP-1 (100 nM) is incubated for 1 hour at 37° C. with ADP-ribosylated HNP-1, or HNP-1 with either an R:W substitution or an R:F substitution (0-800 nM) before the initiation of the cytotoxicity assay on E. coli.
HNP-1 (12 μM) is incubated with ADP-ribosyl-HNP-1, or HNP-1 with either an R:W substitution or an R:F substitution (1.5-12 μM) for 1 hour at 37° C. before the initiation of the chromium release assay.

A549 cells [2] = test: Chromium release assay (defensin cytotoxicity); assay type: cell-based; conditions: 1.5 to 24 μM, 18 hours, 37° C., serum-free RPMI; compared with unmodified HNP-1
Procedure: Chromium-labeled A549 cells (American Type Culture Collection) were incubated (18 hours, 37° C.) in 100 μl of serum-free RPMI (Gibco Fluids Inc., Rockville, Md.) containing HNP-1, ADP-ribosyl-HNP-1, or HNP-1 with either an R:W substitution or an R:F substitution (1.5 to 24 μM) to quantify defensin cytotoxicity. Cytotoxicity is measured as the amount of chromium released from the cells (Panyutich et al., “Human neutrophil defensins and serpins form complexes and inactivate each other,” Am. J. Respir. Cell. Mol. Biol. 12:351-357, 1995).

CD3^+ T-cells = test: Chemotaxis assay; assay type: cell-based, human; conditions: 0.025 to 25 nM in lower chamber, 4 hours, 37° C.
Procedure: CD3^+ T-cells are isolated from human peripheral blood prepared by leukapheresis (NIH, Department of Transfusion Medicine, Bethesda, Md.) (Chertov et al., J. Biol. Chem. 271:2935-2940, 1996) and suspended in migration medium (RPMI 1640, 0.5% bovine serum albumin, 25 mM HEPES). Inserts coated with collagen IV (Becton Dickinson Labware, Bedford, Mass.) are placed into 24-well culture plates to form upper and lower chambers in each well. Upper chambers are wetted with migration medium, then 500 μl of migration medium with or without ADP-ribosyl-HNP-1, HNP-1, or with HNP-1 with either an R:W substitution or an R:F substitution (0.025 to 25 nM) are added to the lower chamber. Cells are added to the upper chamber and plates are incubated at 37° C. in 5% CO2 for 4 hours. Lymphocytes that migrate to the lower chamber are harvested by centrifugation and counted in a hematocytometer.

[3] = tested on: Escherichia coli ATCC43827; conditions: compared with unmodified HNP-1; see PCT/US03/04649; cited from earlier work

## ADP-ribosylated HNP-1: human neutrophil peptide HNP-1 (alpha defensin) with ADP-ribosylated arginine
A549 cells [1]
  IL-8 release: significantly higher
HNP-1
  effect on the cytotoxic activity of HNP-1: blocks the cytotoxic activity of HNP-1 in a concentration-dependent manner
A549 cells [2]
  cytotoxicity for A549 cells (chromium released): less cytotoxic than unmodified HNP-1
CD3^+ T-cells
  ability to recruit T cells: retain their ability to recruit T cells
[3]
  cytotoxicity for E. coli ATCC43827 in the radial diffusion assay: less cytotoxic than unmodified HNP-1
